Assay results: patent US6479250 (Amgen, dated 2002)

Key:
[1] = molecular target: rat Eck receptor (rat) (UniProt D3ZBN3); assay: cell-based or functional assay
[2] = molecular target: T1, eck receptor extracellular domain (eck-x), soluble, expressed in CHO cells (human, UniProt P29317 24-537); assay: BIAcore, EBP on immobilized eck-x
T1 construct: extracellular domain; The construct ends at Asn534 (numbering of the eck cDNA of Lindberg et al.); Immobilized on BIAcore chips or on CNBr-Sepharose; also called soluble eck receptor; recombinant human Eck extracellular domain
T1 sequence (P29317 24-537): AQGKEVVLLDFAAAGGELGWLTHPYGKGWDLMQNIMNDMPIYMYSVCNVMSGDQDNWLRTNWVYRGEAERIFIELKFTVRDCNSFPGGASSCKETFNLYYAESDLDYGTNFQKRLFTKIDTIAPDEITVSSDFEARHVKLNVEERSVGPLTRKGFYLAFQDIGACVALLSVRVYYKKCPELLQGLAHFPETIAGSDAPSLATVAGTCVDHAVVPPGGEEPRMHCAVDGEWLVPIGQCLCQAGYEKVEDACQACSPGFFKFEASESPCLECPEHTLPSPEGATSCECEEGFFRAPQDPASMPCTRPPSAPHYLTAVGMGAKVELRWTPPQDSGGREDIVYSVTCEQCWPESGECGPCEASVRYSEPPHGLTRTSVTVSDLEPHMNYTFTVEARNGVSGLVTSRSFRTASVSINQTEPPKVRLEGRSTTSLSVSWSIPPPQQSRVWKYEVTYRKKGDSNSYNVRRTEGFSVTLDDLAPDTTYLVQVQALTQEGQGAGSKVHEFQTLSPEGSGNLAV

[3] = molecular target: T2, eck receptor (p130^eck), full length, on LIM 2405 cells or on CHO 19.32 cells transfected with the full … (human, UniProt P29317 24-976); assay: Scatchard analysis of steady-state binding of 125I-rEBP to LIM2405 cells, 0° C.
T2 construct: whole, on cells; also called EBP receptors
T2 sequence (P29317 24-976): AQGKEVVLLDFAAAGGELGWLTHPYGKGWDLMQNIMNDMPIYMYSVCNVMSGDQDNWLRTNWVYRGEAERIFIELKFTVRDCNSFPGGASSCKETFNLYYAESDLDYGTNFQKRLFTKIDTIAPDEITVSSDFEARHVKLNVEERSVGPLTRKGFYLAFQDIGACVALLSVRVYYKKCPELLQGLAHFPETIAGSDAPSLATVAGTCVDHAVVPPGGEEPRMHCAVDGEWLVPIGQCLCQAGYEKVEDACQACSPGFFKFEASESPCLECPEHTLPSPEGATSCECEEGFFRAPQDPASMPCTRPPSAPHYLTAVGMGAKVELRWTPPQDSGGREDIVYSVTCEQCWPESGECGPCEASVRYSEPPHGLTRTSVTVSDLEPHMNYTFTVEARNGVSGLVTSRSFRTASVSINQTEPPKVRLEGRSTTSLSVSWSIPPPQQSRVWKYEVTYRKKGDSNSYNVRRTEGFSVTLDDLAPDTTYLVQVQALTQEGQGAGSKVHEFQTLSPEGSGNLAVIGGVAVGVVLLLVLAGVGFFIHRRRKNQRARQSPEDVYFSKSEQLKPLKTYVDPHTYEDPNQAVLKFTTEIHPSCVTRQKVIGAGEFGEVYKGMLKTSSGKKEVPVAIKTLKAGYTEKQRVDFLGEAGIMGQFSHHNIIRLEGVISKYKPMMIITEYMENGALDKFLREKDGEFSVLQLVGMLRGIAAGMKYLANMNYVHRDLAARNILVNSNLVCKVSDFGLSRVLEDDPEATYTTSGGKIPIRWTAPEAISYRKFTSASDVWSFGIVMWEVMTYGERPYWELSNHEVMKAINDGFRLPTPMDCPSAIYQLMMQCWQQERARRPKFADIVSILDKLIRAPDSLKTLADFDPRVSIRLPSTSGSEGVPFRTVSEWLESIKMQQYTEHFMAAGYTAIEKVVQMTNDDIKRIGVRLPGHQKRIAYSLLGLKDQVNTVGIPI
Method: Nonspecific binding was determined from parallel reactions containing a 50 fold excess of unlabeled EBP.

Sequence of rat Eck receptor (rat) (D3ZBN3 entry or part of it limits assumed, form in doubt): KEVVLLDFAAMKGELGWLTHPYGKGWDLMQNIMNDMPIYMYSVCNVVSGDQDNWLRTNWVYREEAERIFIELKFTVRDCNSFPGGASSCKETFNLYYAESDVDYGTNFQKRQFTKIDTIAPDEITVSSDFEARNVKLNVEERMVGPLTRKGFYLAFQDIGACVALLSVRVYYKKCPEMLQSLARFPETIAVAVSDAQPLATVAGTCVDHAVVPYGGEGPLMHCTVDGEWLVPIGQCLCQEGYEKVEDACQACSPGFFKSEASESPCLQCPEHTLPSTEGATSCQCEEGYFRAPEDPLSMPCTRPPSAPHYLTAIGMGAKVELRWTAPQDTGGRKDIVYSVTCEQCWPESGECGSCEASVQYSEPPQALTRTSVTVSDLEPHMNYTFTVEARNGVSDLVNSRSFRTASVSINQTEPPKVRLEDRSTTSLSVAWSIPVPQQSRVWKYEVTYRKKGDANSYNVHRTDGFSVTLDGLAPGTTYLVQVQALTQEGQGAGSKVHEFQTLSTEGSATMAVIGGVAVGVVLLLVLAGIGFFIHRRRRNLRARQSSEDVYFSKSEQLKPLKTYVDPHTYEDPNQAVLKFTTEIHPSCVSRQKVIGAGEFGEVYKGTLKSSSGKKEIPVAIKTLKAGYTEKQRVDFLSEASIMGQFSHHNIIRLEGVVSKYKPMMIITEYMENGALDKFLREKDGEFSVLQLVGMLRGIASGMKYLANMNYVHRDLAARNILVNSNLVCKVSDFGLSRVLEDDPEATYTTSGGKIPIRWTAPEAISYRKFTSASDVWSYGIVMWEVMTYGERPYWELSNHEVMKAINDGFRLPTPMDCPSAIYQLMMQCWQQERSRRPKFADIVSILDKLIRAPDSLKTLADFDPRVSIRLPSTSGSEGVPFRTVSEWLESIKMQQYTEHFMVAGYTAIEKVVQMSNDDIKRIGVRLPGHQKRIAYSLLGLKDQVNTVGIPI

B1: recombinant EBP from CHO cells transfected with the EBP gene (ligand)
chain: DRHTVFWNSSNPKFRNEDYTIHVQLNDYVDIICPHYEDHSVADAAMEQYILYLVEHEEYQLCQPQSKDQVRWQCNRPSAKHGPEKLSEKFQRFTPFTLGKEFKEGHSYYYISKPIHQHEDRCLRLKVTVSGKITHSPQAHVNPQEKRLAA
notes: the entry may begin with a leader at negative positions; also called CHO rEBP; rEBP
Work on B1 yielded an ED50 of survival of embryonic rat spinal cord neurons after 9 days in culture [1] of under 10 µg/mL, an enhancement of survival of embryonic rat spinal cord neurons after 9 days in culture [1] of under 84% and a Kd [2] of about 24 nM. The Kd [3] was 28 nM.
